From patent publication US20050147610A1

B1: Murine anti-human IL-18 mAb (125-2H) (antibody, from another filing, V domains shown)
VH: EIQLQQSGPELVKPGASVKVSCKASGYSFTDYFIYWVKQSHGKSLEWIGDIDPYNGDTSYNQKFRDKATLTVDQSSTTAFMHLNSLTSEDSAVYFCARGLRFWGQGTLVTVSA
VL: DIQMTQSPSSLSASLGERVSLTCRASQDIGSKLYWLQQEPDGTFKRLIYATSSLDSGVPKRFSGSRSGSDYSLTISSLESEDFVDYYCLQYASSPYTFGGGTKLAIKR
B2: 268 (antibody, V domains shown)
VH: ZVQLVESGGGVVQPGRSLRLSCAASGFTFRNYGLHWVRQAPGKGLEWVAVIWYDGSNKYYADSVKGRFTISRDNSKNTLYLQMNSLRAEDTAVYYCARESYYYYGMDVWGQGTTVTVSS
VL: EIVMTQSPATLSVSPGERATLSCRASQSFNSNLVWYQQKPGQAPRLLIYGASTRATGIPARFSGSGSGTEFTLTISSLQSEDFAVYYCQQYNNWTWTFGQGTKVEIKR

Tests used:
[1] = biological target: (4C/A)-huIL-18 (4C/A mutant of mature human IL-18) (human) (UniProt Q14116); assay: Biacore
[2] = biological target: NEM-huIL-18 (recombinant mature human IL-18 treated with N-ethyl maleiamide) (human) (UniProt Q14116); assay: Biacore
[3] = biological target: (4C/A)-huIL-18 (4C/A mutant of mature human IL-18) (human) (UniProt Q14116); assay: BIACORE
[4] = biological target: natural human IL-18 (endogenous, human whole blood) (human) (UniProt Q14116); assay: cell-based or functional assay
[5] = biological target: recombinant mature human IL-18 (preparation not specified) (human) (UniProt Q14116); assay: cell-based or functional assay
[6] = biological target: 125I labeled rhu-IL-18 (human) (UniProt Q14116); assay: RBA: inhibition of 125I-rhu-IL-18 binding to IL-18Rαβ on KG-1 cells
[7] = biological target: NEM-huIL-18 (recombinant mature human IL-18 treated with N-ethyl maleiamide) (human) (UniProt Q14116); assay: cell-based or functional assay

Binder | Kd [1] | Kd [2] | Kd [3] | koff [3] | kon [3] | WBA, Neutralization Potency in vitro (IC50, nM) [4] | KG-1, Neutralization Potency in vitro (IC50, nM) [5] | IC50 [6] | KG-1 Assays (IC50, M), NEM-rhuIL-18 [7]
B1 | 0.2 nM | 0.2 nM | 0.55 nM | 0.00011 s⁻¹ | 190000 M⁻¹ s⁻¹ | 3 nM | 0.2 nM | > 300 nM | 
B2 |  |  |  |  |  |  |  |  | 7e-09 M
